Test results published in patent US20250002605A1 (WUHAN YZY BIOPHARMA, published 2025).

What was measured:
[1] = target: T1, human CD3 antigen (SB, Cat: CT038-H2508H) (human, UniProt P07766 23-126; P04234 22-105); test: SPR (Biacore T200), antigen amine-coupled on CM5, antibody as analyte, 1:1 fit; D0 sample
[2] = target: T2, human EpCAM antigen (SB, Cat: 10694-H08H) (human, UniProt P16422 24-265); test: as above
T2 construct: Bought antigen immobilised on a CM5 chip
T2 sequence (looked up): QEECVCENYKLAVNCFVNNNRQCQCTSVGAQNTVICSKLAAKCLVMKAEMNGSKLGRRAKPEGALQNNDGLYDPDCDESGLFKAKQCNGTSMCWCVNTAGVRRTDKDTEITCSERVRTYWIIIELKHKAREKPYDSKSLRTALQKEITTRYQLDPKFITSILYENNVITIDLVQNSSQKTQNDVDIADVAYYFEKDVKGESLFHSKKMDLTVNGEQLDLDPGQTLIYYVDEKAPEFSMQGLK

[3] = target: T3, human EpCAM on the cell surface (human, UniProt P16422 24-314); test: flow cytometry (FACS) on HCT116 cells, PE anti-human IgG Fc detection
T3 construct: whole, on cells; also called EpCAM of cells; HCT116 cells
T3 sequence (looked up): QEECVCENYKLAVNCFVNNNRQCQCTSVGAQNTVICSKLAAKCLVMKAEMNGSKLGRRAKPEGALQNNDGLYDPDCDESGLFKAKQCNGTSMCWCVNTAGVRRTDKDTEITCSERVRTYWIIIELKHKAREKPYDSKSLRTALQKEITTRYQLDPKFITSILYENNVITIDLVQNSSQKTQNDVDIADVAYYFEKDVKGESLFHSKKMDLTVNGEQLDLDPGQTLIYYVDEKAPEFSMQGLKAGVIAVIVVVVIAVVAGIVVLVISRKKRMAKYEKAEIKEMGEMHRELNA

[4] = target: T1, human CD3 antigen (SB, Cat: …); test: SPR (Biacore T200), antigen amine-coupled on CM5, antibody as analyte, 1:1 fit; D14 sample after 14 days at 40 C
[5] = target: T2, human EpCAM antigen (SB, Cat: …); test: as above
[6] = target: T3, human EpCAM on the cell surface; test: cell-based or functional assay
CD3 on Jurkat cells [7] = test: cell-based or functional assay
[8] = target: T1, human CD3 antigen (SB, Cat: …); test: SPR (Biacore T200), CD3 antigen amine-coupled on CM5, antibody as analyte, 1:1 fit
[9] = target: T3, human EpCAM on the cell surface; test: cell-based or functional assay; remark: listed apart in the source
CD3 on Jurkat cells [10] = test: cell-based or functional assay; remark: listed apart in the source

B1: M701B (bispecific antibody, human IgG1, kappa)
light: ELVMTQSPSSLTVTAGEKVTMSCKSSQSLLNSGNQKNYLTWYQQKPGQPPKLLIYWASTRESGVPDRFTGSGSGTDFTLTISSVQAEDLAVYYCQNDYSYPLTFGAGTKLEIKRTVAAPSVFIFPPSDEQLKSGTASVVCLLNNFYPREAKVQWKVDNALQSGNSQESVTEQDSKDSTYSLSSTLTLSKADYEKHKVYACEVTHQGLSSPVTKSFNRGEC
heavy: EVQLLEQSGAELVRPGTSVKISCKASGYAFTNYWLGWVKQRPGHGLEWIGDIFPGSGNIHYNEKFKGKATLTADKSSSTAYMQLSSLTFEDSAVYFCARLRNWDEPMDYWGQGTTVTVSSASTKGPSVFPLAPSSKSTSGGTAALGCLVKDYFPEPVTVSWNSGALTSGVHTFPAVLQSSGLYSLSSVVTVPSSSLGTQTYICNVNHKPSNTKVDKKVEPKSCDKTHTCPPCPAPELLGGPSVFLFPPKPKDTLMISRTPEVTCVVVDVSHEDPEVKFNWYVDGVEVHNAKTKPREEQYNSTYRVVSVLTVLHQDWLNGKEYKCKVSNKALPAPIEKTISKAKGQPREPQVYTLPPSRDELTKNQVSLWCLVKGFYPSDIAVEWESNGQPENNYDTTPPVLDSDGSFFLYSDLTVDKSRWQQGNVFSCSVMHEALHNHYTQKSLSLSPGK
chain: QVQLVESGGGVVQPGRSLRLSCAASGFTFSTYAMNWVRQAPGKGLEWVARIRSKYNNYATYYADSVKDRFTISRDDSKNTLYLQMNSLRAEDTAVYYCARHGNFGNSYVSWFAYWGQGTLVTVSSGGGGSGGGGSGGGGSQTVVTQEPSLTVSPGGTVTLTCRSSTGAVTTSNYANWVQQKPGQAPRGLIGGTNKRAPGVPARFSGSLLGGKAALTLSGVQPEDEAEYYCALWYSNLWVFGGGTKVEIKGAAAEPKSCDKTHTCPPCPAPELLGGPSVFLFPPKPKDTLMISRTPEVTCVVVDVSHEDPEVKFNWYVDGVEVHNAKTKPREEQYNSTYRVVSVLTVLHQDWLNGKEYKCKVSNKALPAPIEKTISKAKGQPREPQVYTLPPSRDELTKNQVSLTCRVKGFYPSDIAVEWESNGQPENNYKTTPPVLKSDGSFFLASKLTVDKSRWQQGNVFSCSVMHEALHNHYTQKSLSLSPGK
notes: YBODY format; also called bispecific antibody M701B
B1 showed a Kd [1] of 0.0283 µM, a Kd [2] of 0.02 µM and an EC50 [3] of 0.00372 µM. The Kd [4] was 0.0315 µM, the Kd [5] was 0.0226 µM and the “EC50 (read off the curve), cell bridging of HCT116 and Jurkat [panel C]” value [6] was ~10 ng/mL. The “EC50 (read off the curve), cell bridging of HCT116 and Jurkat [panel C]” value (CD3 on Jurkat cells [7]) was ~10 ng/mL, the Kd [8] was 0.0283 µM and the “cell bridging of HCT116 and Jurkat cells (CFSE/PKH26 double-positive cells, flow cytometry)” value [9] was ~40 % of the total PKH26-positive cells. The “cell bridging of HCT116 and Jurkat cells (CFSE/PKH26 double-positive cells, flow cytometry)” value (CD3 on Jurkat cells [10]) was ~40 % of the total PKH26-positive cells.
